This is an account of results in US20240108746A1 (Molecular Partners, published 2024).

The target of test [1] is T1, Biotinylated CD3-specific binding domain SEQ ID NO: 13 (biotinylated (site not stated)).
T1 construct: Ligand on the neutravidin (NLC) SPR chip; The same domain is the CD3-specific domain of TCE #1
T1 chain: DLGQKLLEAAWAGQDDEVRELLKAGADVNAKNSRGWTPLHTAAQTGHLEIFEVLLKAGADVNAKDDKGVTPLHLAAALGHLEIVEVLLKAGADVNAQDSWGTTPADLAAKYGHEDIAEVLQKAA
Description: calculated from SPR koff (ln2/koff). How it is done: (§1) Further SPR data were generated for Binders #1 to #9 (as listed in Example 1 above), binding to biotinylated CD3-specific binding domains having SEQ ID NOs: 13 and 14, respectively, on the chip. […] The blocking half-life (T_{1/2}) was then calculated.

Test [2] addresses T2, Biotinylated CD3-specific binding domain SEQ ID NO: 14 (biotinylated (site not stated)).
T2 construct: Ligand on the neutravidin (NLC) SPR chip
T2 chain: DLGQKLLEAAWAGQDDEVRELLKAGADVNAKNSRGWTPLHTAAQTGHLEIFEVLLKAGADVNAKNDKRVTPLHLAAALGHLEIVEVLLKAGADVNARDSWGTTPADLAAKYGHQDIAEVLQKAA
The experiment in a line: calculated from SPR koff (ln2/koff). The method, then:
as §1

The target of test [3] is T1, Biotinylated CD3-specific binding …. Description: SPR (ProteOn XPR36), 33 C, multi-trace; biotinylated ligand on chip, binder as analyte. The method, then:
as §1

Test [4] addresses T2, Biotinylated CD3-specific binding …. The description is as above. How it is done: as §1
The target in test [5] is T3, TCE #1.
T3 chain: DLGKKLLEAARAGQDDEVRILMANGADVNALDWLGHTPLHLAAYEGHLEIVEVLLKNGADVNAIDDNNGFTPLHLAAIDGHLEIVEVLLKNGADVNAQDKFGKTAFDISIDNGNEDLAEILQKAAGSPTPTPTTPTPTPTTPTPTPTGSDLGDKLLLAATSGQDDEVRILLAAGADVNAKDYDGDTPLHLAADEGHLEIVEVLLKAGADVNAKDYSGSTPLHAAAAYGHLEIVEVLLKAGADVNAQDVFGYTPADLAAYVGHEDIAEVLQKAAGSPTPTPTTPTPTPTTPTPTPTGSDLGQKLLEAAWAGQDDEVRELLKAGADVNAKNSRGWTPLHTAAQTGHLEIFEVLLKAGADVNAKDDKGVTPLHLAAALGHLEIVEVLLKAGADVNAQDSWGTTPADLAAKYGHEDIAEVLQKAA
The experiment in a line: cell-based or functional assay.

For test [6], the target named is T3, TCE #1. Description: cell-based or functional assay.
The target of test [7] is T3, TCE #1. The experiment in a line: cell-based or functional assay.
The target of test [8] is T4, TCE #2.
T4 construct: also called α-HSA×α-CD123×α-CD33×α-CD3 T-cell engager; TCE (with a half-life extending moiety)
T4 chain: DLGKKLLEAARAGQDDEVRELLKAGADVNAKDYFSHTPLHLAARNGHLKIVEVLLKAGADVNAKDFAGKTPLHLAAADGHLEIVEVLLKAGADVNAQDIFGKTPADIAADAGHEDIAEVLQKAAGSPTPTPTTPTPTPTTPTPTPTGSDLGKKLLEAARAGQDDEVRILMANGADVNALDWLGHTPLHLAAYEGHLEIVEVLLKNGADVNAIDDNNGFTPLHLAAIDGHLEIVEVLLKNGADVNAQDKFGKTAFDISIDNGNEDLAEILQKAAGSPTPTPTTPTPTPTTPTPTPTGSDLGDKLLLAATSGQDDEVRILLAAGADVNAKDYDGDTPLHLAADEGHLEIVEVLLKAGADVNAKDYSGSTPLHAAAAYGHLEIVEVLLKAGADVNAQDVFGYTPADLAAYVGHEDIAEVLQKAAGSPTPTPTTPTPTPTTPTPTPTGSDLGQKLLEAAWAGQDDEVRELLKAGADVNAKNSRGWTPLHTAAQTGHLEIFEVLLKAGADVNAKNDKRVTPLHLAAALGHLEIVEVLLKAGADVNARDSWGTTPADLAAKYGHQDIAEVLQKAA
Description: not stated (affinity to the CD3 effector moiety of TCE #2); Binder #4, double-digit pM.

In test [9] the target is T5, CD3-specific binding domain (SEQ ID NO:11).
T5 construct: Immobilized on beads in the sink chamber of the 'complex' Incucyte assay; also the first selection target; also called immobilized scavenger protein; bead-immobilized target protein
T5 chain: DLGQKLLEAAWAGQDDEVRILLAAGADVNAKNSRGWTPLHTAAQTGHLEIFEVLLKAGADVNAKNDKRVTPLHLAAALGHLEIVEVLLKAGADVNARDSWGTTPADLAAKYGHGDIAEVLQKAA
Description: bead-immobilized scavenger protein in the sink chamber of the complex Incucyte assay. The method, then: In the experiment described here, a TCE (TCE #1) was used as drug molecule.
As in Example 4, a tumor cell line expressing the TAA was used as target cell line which has been transduced with Incucyte Nuclight Red Lentivirus for detection by the Incucyte® camera. PanT-cells were added, together with different prodrug complexes. […] Additionally, unbound TCE #1 (10 pM) as well as background (i.e. no prodrug complex or TCE, but with beads) served as controls. Tumor cell growth was measured for a period of 5 days by determining the area of red objects detected by the Incucyte® camera.

Test [10] concerns the target T3, TCE #1. The experiment in a line: not stated in the sentence (affinity quoted for the Incucyte experiment with TCE #1).

Where “and” joins values, the source holds several entries; their conditions need not be identical. Identical values can stand only once.

B1: Binder #2 (designed binder)
chain: MRGSHHHHHHGSDLGKKLLQAARAGQLDEVRELLKAGADVNAKDFKGLTPLHLAAAHGHLEIVEVLLKAGADVNAKDVYGWTPLHWAAASGHLEIVEVLLKAGADVNAKDWLGITPLHLAASHGHLEIVEVLLKAGADVNAQDKSGKTPADLAARAGHQDIAEVLQKAA
Usually Kd stands for the concentration at which binding is half-saturated. A lower Kd goes with higher affinity. The term koff denotes a measure of how fast the partners let go of each other. A lower koff goes with slow dissociation. For orientation: kon means the second-order rate constant of association. For B1, the “Blocking T1/2” value in [1] was 4.8 h; in test [2], 9.6 h. The dissociation constant Kd is 0.028 nM in test [3] and 0.032 nM in test [4]. Moreover, the off-rate constant (koff) in test [3] came out at 4e-05 s⁻¹; in test [4], 2e-05 s⁻¹. The kon came out at 1.43e+06 M⁻¹ s⁻¹ in test [3] and 630000 M⁻¹ s⁻¹ in [4].

B2: Binder #4 (designed binder)
chain: MRGSHHHHHHGSDLGKKLLQAARAGQLDEVRELLKAGADVNAKDFKGLTPLHLAAEHGHLEIVEVLLKAGADVNAKDVYGWTPLHWAAAKGHLEIVEVLLKAGADVNAKDWLGITPLHLAASHGHLEIVEVLLKAGADVNAQDKSGKTPADLAARAGHQDIAEVLQKAA
For B2, in test [5], the “loss of inhibition of TCE activity (simple Incucyte assay)” value (from here on “loss of inhibition of TCE activity”) was 4 fold molar excess of binder over TCE. The “IC50, inhibition of TCE #1 (10 pM) mediated tumor cell killing (LDH release, OD492nm-620nm, 48 h)” value in test [6] amounted to 26.3 pM. In addition, the “IC50, inhibition of TCE #1 (10 pM) mediated T-cell activation (CD25+ T-cells, % of CD8+, 48 h)” value in test [7] amounted to 33.8 pM. For the same molecule, the “Blocking T1/2” value in [1] was 10.1 h; in test [2], 16 h. Besides, the values for the equilibrium dissociation constant (Kd) in test [8], in [3] and in test [4] were around 0.02 nM, 0.011 nM and 0.019 nM, respectively. Moreover, the values for the koff in test [3] and in test [4] were 1.9e-05 s⁻¹ and 1.2e-05 s⁻¹, respectively. In addition, the results for the association rate constant (kon) in test [3] and in test [4] were 1.74e+06 M⁻¹ s⁻¹ and 630000 M⁻¹ s⁻¹, respectively.

B3: Binder #3 (designed binder)
chain: MRGSHHHHHHGSDLGKKLLQAARAGQLDEVRELLKAGADVNAKDFKGLTPLHLAAAHGHLEIVEVLLKAGADVNAKDVYGWTPLHWAAAKGHLEIVEVLLKAGADVNAKDWLGITPLHLAASHGHLEIVEVLLKAGADVNAQDKSGKTPADLAARAGHQDIAEVLQKAA
For B3, the “Blocking T1/2” value in test [1] was 6.9 h. In test [2], the “Blocking T1/2” value is 10.1 h. In test [3], the equilibrium dissociation constant (Kd) worked out at 0.016 nM, the off-rate constant (koff) came out at 2.8e-05 s⁻¹ and the on-rate (kon) was determined as 1.7e+06 M⁻¹ s⁻¹. Further, in test [4], the Kd is 0.029 nM, the off-rate constant (koff) came to 1.9e-05 s⁻¹ and the kon was found to be 650000 M⁻¹ s⁻¹.

B4: Binder #9 (designed binder)
chain: MRGSHHHHHHGSDLGKKLLQAARAGQLDEVRELLKAGADVNAKDHYGWTPLHLAASEGHLEIVEVLLKAGADVNAKDWIGWTPLHLAASFGHLEIVEVLLKAGADVNAKDVSGKTPLHIAARQGHLEIVEVLLKAGADVNAQDKSGKTPADLAARAGHQDIAEVLQLQKAA
In the case of B4, in [5], the “inhibition of TCE activity (complex Incucyte assay, functional sink chamber with beads coated with CD3-specific binding domain)” value is 12.3 molar ratio binder:TCE; the “inhibition of TCE activity (complex Incucyte assay, sink chamber with non-coated beads)” value is 1.37 molar ratio binder:TCE; the “inhibition of TCE activity (simple Incucyte assay)” value was 1 molar ratio binder:TCE and 4 fold molar excess of binder over TCE; the “loss of inhibition of TCE activity” value is 1 molar ratio binder:TCE. For the same molecule, the “IC50, inhibition of TCE #1 (10 pM) mediated tumor cell killing (LDH release, OD492nm-620nm, 48 h)” value in test [6] amounted to 51.8 pM. Besides, in test [7], the “IC50, inhibition of TCE #1 (10 pM) mediated T-cell activation (CD25+ T-cells, % of CD8+, 48 h)” value is 83.8 pM. The “Blocking T1/2” value in [1] is above 3.9 h. Also, the “Blocking T1/2” value in test [2] was above 3.9 h. The binding result in test [9] was “binds”. Also, in test [3], the equilibrium dissociation constant (Kd) is below 0.02 nM and the off-rate constant (koff) is below 5e-05 s⁻¹. In test [4], this molecule registered a Kd below 0.02 nM and a dissociation rate constant (koff) below 5e-05 s⁻¹.

B5: Binder #5 (designed binder)
chain: MRGSHHHHHHGSDLGKKLLQAARAGQLDEVRELLKAGADVNAKDHYGWTPLHIAAQIGHLEIVEVLLKAGADVNAKDWIGYTPLHLAASHGHLEIVEVLLKAGADVNAKDVSGKTPLHVAAAHGHLEIVEVLLKAGADVNAQDKSGKTPADLAARAGHQDIAEVLQKAA
B5: the “blocking of T-cell mediated tumor cell growth inhibition (simple Incucyte assay)” value in test [5] is 4 fold molar excess of binder over TCE. Moreover, in test [5], the “inhibition of TCE activity (simple Incucyte assay)” value was 4 fold molar excess of binder over TCE. Further, in test [5], the “loss of inhibition of TCE activity” value was 1 molar ratio binder:TCE. Also, the “IC50, inhibition of TCE #1 (10 pM) mediated tumor cell killing (LDH release, OD492nm-620nm, 48 h)” value in test [6] was found to be 16 pM. Also, in [7], the “IC50, inhibition of TCE #1 (10 pM) mediated T-cell activation (CD25+ T-cells, % of CD8+, 48 h)” value came to 18.4 pM. For the same molecule, the “Blocking T1/2” value in test [1] and in test [2] was above 3.9 h throughout. The figures for the Kd in test [10], in [3] and in test [4] were at most 0.006 nM, below 0.02 nM and below 0.02 nM, respectively. The koff in test [3] and in test [4] was below 5e-05 s⁻¹ throughout.

B6: Binder #7 (designed binder)
chain: MRGSHHHHHHGSDLGKKLLQAARAGQLDEVRELLKAGADVNAKDHYGWTPLHLAAAEGHLEIVEVLLKAGADVNAKDWIGYTPLHIAASHGHLEIVEVLLKAGADVNAKDSSGKTPLHIAAQHGHLEIVEVLLKAGADVNAQDKSGKTPADLAARAGHQDIAEVLQKAA
With B6, the “Blocking T1/2” value in test [1] and in test [2] was above 3.9 h in each case. Moreover, the Kd in test [3] and in test [4] was below 0.02 nM each time. The koff in test [3] and in [4] was below 5e-05 s⁻¹ in each case.

B7: Binder #6 (designed binder)
chain: MRGSHHHHHHGSDLGKKLLQAARAGQLDEVRELLKAGADVNAKDQYGWTPLHLAAYSGHLEIVEVLLKAGADVNAKDWVGWTPLHLAASHGHLEIVEVLLKAGADVNAKDEAGRTPLHIAAKQGHLEIVEVLLKAGADVNAQDKSGKTPADLAARAGHQDIAEVLQKAA
On to B7, for which the “Blocking T1/2” value in test [1] and in test [2] was above 3.9 h throughout. Further, the Kd in [3] and in test [4] was below 0.02 nM each time. Moreover, the koff in test [3] and in test [4] was below 5e-05 s⁻¹ in each case.

B8: Binder #8 (designed binder)
chain: MRGSHHHHHHGSDLGKKLLQAARAGQLDEVRELLKAGADVNAKDHYGWTPLHIAAQRGHLEIVEVLLKAGADVNAKDWLGWTPLHVAASHGHLEIVEVLLKAGADVNAKDLSGRTPLHIAARQGHLEIVEVLLKAGADVNAQDKSGKTPADLAARAGHQDIAEVLQKAA
For B8, the “Blocking T1/2” value in test [1] and in [2] was above 3.9 h in each case. Also, the Kd in test [3] and in [4] was below 0.02 nM throughout. Moreover, the dissociation rate constant (koff) in test [3] and in [4] was below 5e-05 s⁻¹ in each case.
